Measurements: the nanobody polyreactivity screen of Harvey et al. (2022)

Experiment: yeast display, Sf9 membrane polyspecificity reagent, FACS + sequencing; frameworks hold sequencing errors
Method in brief: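 Nanobodies from a synthetic yeast display library (Saccharomyces cerevisiae BJ5465), induced 36–48 hours with galactose, were stained 1 hour at 4 °C with 10% biotinylated, detergent-solubilized Sf9 membrane reagent, enriched on streptavidin microbeads, then FACS-sorted. Anti-HA (expression) and streptavidin (reagent binding) fluorescence set low and high (top ~1%) gates. Polyreactivity labels come from the gate of origin. Genes were colony-PCR amplified, MiSeq 2 × 250 sequenced and filtered by CDR length.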

Sequence | polyreactivity (PSR sort gate)
QVQLVESGGGLVQAGGSLRLSCAASGFIFVRYAMGWYRQAPGKERELVAAISSSGGTTNYADSVKGRFTISRDNAKHTVYLQMNSLKPEDTAVYYCNADYYWFFDFFDYDYWGQGTQVTVSS | low polyreactivity
QVQLVESGGGLVQAGGSLRLSCAASGFIFVVNAMGWYRQAPGKEREFVAVISSSTGSTYYADSVKGRFTISRDNAKNTVYLQMNSLKPEDTAVYYCAAASRRRRPLNRMDYWGQGTQVTVSS | low polyreactivity
QVQLVESGGGLVQAGGSLRLSCAASGFIFVYYAMGWYRQAPGKERELVAAISKRGGNTYYADSVKGRFTISRDNAKNTVYLQMNSLKPEDTAVYYCAAGFTTRRGEYNYWGQGTQVTVSS | high polyreactivity
QVQLVESGGGLVQAGGSLRLSCAASGFIFWFNALGWYRQAPGKERELVATISWSDTSTYYADSVKGRFTISRDNAKNTVYLQMNSLKPEDTAVYYCATDGRETWLPEYYWGQGTQVTVSS | low polyreactivity
QVQLVESGGGLVQAGGSLRLSCAASGFIFWLYAMGWYRKAPVKESELVAAISWSDGSTYYADSVKGRFTISRDNAKNSVYLQMNCLKREDTAVYYCNTVRVHGFPIDRIYDYWGQGTQVTVSS | high polyreactivity
QVQLVESGGGLVQAGGSLRLSCAASGFIFWLYAMGWYRQAPGKERELVAAISRSGGRTYYADSVKGRFTISRDNAKNTVYLQMNSLKPEDTAVYYCAKDDNYKSYPYDYWGQGTQVTVSS | high polyreactivity
QVQLVESGGGLVQAGGSLRLSCAASGFIFWRNAMGWYRQAPGKERELVAAITSGDRTNYADSVKGRFTISRDNAKNTVYLQMNSLKPEDTAVYYCNARRLRLVSYDYCGQGTQVTVSS | low polyreactivity
QVQLVESGGGLVQAGGSLRLSCAASGFIFWSYAMGWYIQAPGKERELVAAINTSGDSTYYADSVKGRFTISRDNAKNTVYLQMNSLKPEDTAVYYCAAKSSTRGDYWGQGTQVTVSS | low polyreactivity
QVQLVESGGGLVQAGGSLRLSCAASGFIFWWYAMGWYRQAPGKERELVATITASVGSTNYADSVKGRFTISRDNAKNTVYLQMNSLKPEDTAVYYCASDIIGAIRDWDHTRMDYWGQGTQVNVSS | low polyreactivity
QVQLVESGGGLVQAGGSLRLSCAASGFIFWYNAMGWYRQAPGKERELVADNTSGGSTTYADSVKGRFTISRDNAKNTVYLQMNSLKPEDTAVYYCAASIRRYWLHPGDYWGQGTQVTVSS | low polyreactivity
QVQLVESGGGLVQAGGSLRLSCAASGFIFWYYAIGWYRQAPGKERELVADISSGGSTNYADSVKGRFTISRDNAKNTVYLQMNSLKPEDTAVYYCADDTFRRDDYWGQGTQVTVSS | low polyreactivity
QVQLVESGGGLVQAGGSLRLSCAASGFIFWYYAMGWYRQAPGKERELVAAISSRGGSTYYADSVKGRFTISRDNAKNTVYLQMNSLKPEDTAVYYCAATGYTGYSRYYYWGQGTQVTVSS | high polyreactivity
QVQLVESGGGLVQAGGSLRLSCAASGFIFWYYDMGWYRQAPGKERELVAAISDRGGSTSYADSVKGRFTISRDNAKNTVYLQMNSLKPEDTAVYSCAVDRSLSPFAYDYWGQGTQVTVSS | low polyreactivity
QVQLVESGGGLVQAGGSLRLSCAASGFIFYDYALGWYRQAPGKERELVAAITQRGGSTYYADSVKGRFPISRDNAKKTVYLQMTSLKPVDTAVYSCAAKDAPYWFPITHVQPVDMDYWGQGTQVTVSS | high polyreactivity
QVQLVESGGGLVQAGGSLRLSCAASGFIFYDYAMGWYRQAPGKERELVAVITRGGSTYYADSVKGRFTISRDNAKNTVYLQMNSLKPEDTAVYYCAAYWFTPGFTFDYWGQGTQVTVSS | low polyreactivity
QVQLVESGGGLVQAGGSLRLSCAASGFIFYEYAMGWYRQSPGKERELVAGISWSGDSTYYADSVKGRFTISRDNAKNTVYLQMNRLKPEDTAVYYCAADPYYQGYDYWGQGTQVTVSS | low polyreactivity
QVQLVESGGGLVQAGGSLRLSCAASGFIFYGYAKGWYRQAPGKERELVAGISTGGSKNYADSVKGRFTISRDNAKNTVYVQMNSLKPEDTAVDYCAVVDVEEHVGHWGQGTQVTVSS | low polyreactivity
QVQLVESGGGLVQAGGSLRLSCAASGFIFYGYAMGWYRQAPGKERELVAGISTVGSTNYADSVKGRFTISRDNAKNTVYLQMNSLKPEDSAVYYCAVVDVEDHVGHWGQGTQVTVSS | low polyreactivity
QVQLVESGGGLVQAGGSLRLSCAASGFIFYHNAMGWYRQAPGKERELVAVISSGGSTYYADSVKGRFTISRDNAKNTVYLQMNSLKPEDTAVYYCAALYYGWSGSYAMDYWGQGTQVTVSS | high polyreactivity
QVQLVESGGGLVQAGGSLRLSCAASGFIFYHYAMGRYRQAPGKERELVAAISWNGGRTYYADSVKGRFTISRDNAKNTVYLQMNSLKPEDTAVYYCAAYWTRVERVYWGQGTQVTVSS | high polyreactivity
QVQLVESGGGLVQAGGSLRLSCAASGFIFYHYAMGWYRQAPGKRRELVAAISYSGGSTYYADSVKGRFTISRDNGKNTVYLQMNSLKPEDPAVYYCNAVYHTRLYTLSTFDYWGQGTQVTVSS | high polyreactivity
QVQLVESGGGLVQAGGSLRLSCAASGFIFYIYPMGWYRQAPGKERELLAAISWNGGSTYYADSVKGRFTISRDNAKNTVYLQMNSLNPEDTAVFYCATLARYRYGTGRFDYWGQGTQVTVSS | high polyreactivity

Sequence | polyreactivity (PSR sort gate)
QVQLVESGGGLVQAGGSLRLSCAASGFIFYKYAMGWYRQAPGKEREFVAAISSRGSRTYYADSVKGRFTISRDNAKNTVYLQMNSLKPEDTAVYYCAAGYWARLYDYDYWGQGTQVTVSS | high polyreactivity
QVQLVESGGGLVQAGGSLRLSCAASGFIFYKYAMGWYRQAPGKERELVAAITARGGSTYYADSVKGRFTISRDNAKNTVYLQMNSLKPEDTAVYYCAADTYFSGAGGQAYQYDYWGQGTQVTVSS | high polyreactivity
QVQLVESGGGLVQAGGSLRLSCAASGFIFYKYAMGWYRQAPGKERELVAAITWRGGRTNYADSVKGRFTISRDNAKNTVYLQMNSLKPEDTAVYYCAADPWYSSYYYSYEYWGQGTQVTVSS | high polyreactivity
QVQLVESGGGLVQAGGSLRLSCAASGFIFYKYAMGWYRQAPGKERELVAGITWNVGSTYYADSVKGRFTISRDNAKNTVYLQMNSMKPEDTAVYYCAARHSYLGGTISLLYDYWGQGTQVTVSS | low polyreactivity
QVQLVESGGGLVQAGGSLRLSCAASGFIFYLYAMGWYRQAPGKERELVASINVSGASTRYADSVKGRFTISRDNAKNTDYLQMNSLKPEDTAVYYCAAPSRYDYWGQGTQVTVSS | low polyreactivity
QVQLVESGGGLVQAGGSLRLSCAASGFIFYLYTMGWYRQAPGKERELVAAITGGGGTYYADSVKGRFTISRDNAKNTVYLQMNSLKPEDTAVYYCAAEYYLYLWDEYDYWGQGTQVTVSS | high polyreactivity
QVQLVESGGGLVQAGGSLRLSCAASGFIFYPYAMAWYRQAPGKERELVAVITSGGRTYYADSVKGRFTISRDNAKNTVYLQMNSLKPEDTAVYYCAARYGRIHWKANWPEYGYWGQGTQVTVSS | low polyreactivity
QVQLVESGGGLVQAGGSLRLSCAASGFIFYPYAMGWYRQAPGKERELVAAITWSGSRTYYADSVKGRFTISRDNAKHTVYLQMNSLKPEDTAVYYCNKYPQPTAYDYWGQGTQVTVSS | high polyreactivity
QVQLVESGGGLVQAGGSLRLSCAASGFIFYRNTMGWYRQAPGKEREFVAAIRWRGGSTYYADSVKGRFTISRDNAKNTVYLQMNSLKPEDTAVYYCAAGTPWSVEGSYVTYPWNRYYYWGQGTQVTVSS | high polyreactivity
QVQLVESGGGLVQAGGSLRLSCAASGFIFYRYAMGWYRLAPGKERELVAAISSSGGSTYYADSVKGRFTISRDYAKYSVYLQMNSLKPEDTAVYYCAVDYWGQGTQVTVSS | high polyreactivity
QVQLVESGGGLVQAGGSLRLSCAASGFIFYRYAMGWYRQAPGKEREFVAAITRSAGGTYYADSVKGRFTISRDNEKNTVYLQMNSLKPEDTAVYYCAAVYRSGSRYYLGWYNYWGQGTQVTVSS | high polyreactivity
QVQLVESGGGLVQAGGSLRLSCAASGFIFYRYAMGWYRQAPGKERELVAAINWSGGGTYYADSVKGRFTISRDNAKNTVYLQMNSLKPEDTAVYYCAAGRSFRGSYWYEYWGQGTQVTVSS | high polyreactivity
QVQLVESGGGLVQAGGSLRLSCAASGFIFYRYAMGWYRQAPGKERELVAAISSSGGSTYYADSVKGRFTISRDNAKNTVYLQMNSLKPEDTAVYYCAAEPSGKRSKFYYLGQGTQVTVSS | high polyreactivity
QVQLVESGGGLVQAGGSLRLSCAASGFIFYRYAMGWYRQAPGKERELVAAITGSGARTYYADSVKGRFTISRDNAKNTVYLQMNSLKPEDTAVYYCAARYILSKYGSGVRYNYWGQGTQVTVSS | high polyreactivity
QVQLVESGGGLVQAGGSLRLSCAASGFIFYSNAMGWYRQAPGKERELVAGISRGGSTYYADSVKGRFTISRDNAKNTVYLQMNRLKPEDTAVYYCAAKISLGDDYWGQGTQVTVSS | low polyreactivity
QVQLVESGGGLVQAGGSLRLSCAASGFIFYSNPMGWYRQAPGKERELVAAITSGGSTYYADSVKGRFTISRDNAKNTVYLQMNSLKPEETAVYYCAAVVRVYFRGFTSYDYWGQGTQVTVSS | high polyreactivity
QVQLVESGGGLVQAGGSLRLSCAASGFIFYTYAMGWSRLAPGKEREFVASISKSGGRTYYADSVKRRFTMSRDNAKNTVYLQMISLKPEVTAVYYCNAYRSTHFFSYRDDYWGQGTQVTVSS | high polyreactivity
QVQLVESGGGLVQAGGSLRLSCAASGFIFYVNDMGWYRQAPGKERELVADISGGTSTNYADSVKGRFTMSRDNAKNTVYLQMNSLNPEDTAVYYCNKYVAYDYWGQGTQVTVSS | low polyreactivity
QVQLVESGGGLVQAGGSLRLSCAASGFIFYYAMGWYRPAPGKERELVAAISSGSSTYADSVKGRFTISRDNAKNTVYLQMNSLKPEDTAVYYCATRYSSWYSNRDYDYWGQGTQVTVSS | low polyreactivity
QVQLVESGGGLVQAGGSLRLSCAASGFIFYYNAMGWSRQAPGKERELVASISRDCGRTYYADSVKGRFTISRDNAKNTVYLQMNSLKPEDTAVYYCAKKRINSRKYDYWGQGPQVTVSS | low polyreactivity
QVQLVESGGGLVQAGGSLRLSCAASGFIFYYNAMGWYRQAPGKERELVAAISSSAGSTYYADSVKGRFTISRDNAKNTVYLQMNSLKPEDTAVYYCDGSRPPNTSNTGYGSWGQGTQVTVSS | low polyreactivity
